According to paper PMC5760045, “The centrosomin CM2 domain is a multi-functional binding domain with distinct cell cycle roles” (PLoS ONE, 2018):

Columns and labels:
[1] = target: centrosomin CM2 aa1090-1148 (monomeric CM2) (Drosophila melanogaster) (UniProt P54623); experiment: NMR titration; 2D [15N,1H]-HSQC of 100μM 15N labeled monomeric CM2 with 18μM CaM; 2mM EGTA added in place of 2mM CaCl2; 300K; 20mM PIPES pH 6.8, 140mM NaCl; apparent affinity
[2] = target: CM2 Δ1130–1148 (Drosophila melanogaster) (UniProt P54623); experiment: SEC-MALS; KW-802.5 size exclusion column with inline MALS and refractive index detectors; 50mM HEPES pH 7.0, 200mM NaCl, 1mM DTT; dimer constructs also at submicromolar concentrations (1μM and 9μM for aa1074-1148)
[3] = target: the molecule itself; experiment: as above
[4] = target: T1, GB1-CNNLZ (CNN aa490-567 fused to the GB1 solubility tag) (Drosophila melanogaster, UniProt P54623-2 490-567); experiment: NMR titration; 2D [15N,1H]-HSQC of 100μM 15N labeled CM2 with unlabeled partner added; 300K; 20mM PIPES pH 6.8, 140mM NaCl, 0.01% NaN3, 5% D2O, 2mM CaCl2; 800 MHz; conditions: both partners purified
T1 construct: centrosomin (CNN), Drosophila melanogaster, residues 490-567 with the leucine zipper, the same fragment as in the crystal structure 5MWE; The introduction gives aa490-544 for CNNLZ of Feng et al; the results give aa490-567 for the fragment used here; also called GB1-CnnMD; source: E. coli, purified (NiNTA, size exclusion)
T1 sequence (looked up): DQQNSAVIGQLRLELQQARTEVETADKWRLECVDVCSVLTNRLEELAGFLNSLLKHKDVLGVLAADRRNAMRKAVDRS

“calmodulin (from UniProt P62152 1-149) (natural protein)” showed a reduction of the apparent affinity without calcium (2mM EGTA) against 2mM CaCl2 [1] of 50 to 70%.

“CM2 Δ1130–1148 (from UniProt P54623-2 1-1129) (domain or fragment)” was tested, and the stoichiometry N [2] was 2.

B1: centrosomin CM2 aa1064-1148 (longer dimeric CM2) (domain or fragment, Drosophila melanogaster, UniProt P54623-2 1064-1148, looked up)
chain: ESTSPDSKSNVATGAATVHDCAKVDLENAELRRKLIRTKRAFEDTYEKLRMANKAKAQVEKDIKNQILKTHNVLRNVRSNMENEL
notes: centrosomin (CNN), Drosophila melanogaster, residues 1064-1148, from cDNA LD19135; source: E. coli, purified (NiNTA, cation exchange, size exclusion)
With B1 the “stoichiometry N” value [3] was 2.

B2: centrosomin CM2 aa1074-1148 (minimal dimeric CM2) (domain or fragment, Drosophila melanogaster, UniProt P54623-2 1074-1148, looked up)
chain: VATGAATVHDCAKVDLENAELRRKLIRTKRAFEDTYEKLRMANKAKAQVEKDIKNQILKTHNVLRNVRSNMENEL
notes: centrosomin (CNN), Drosophila melanogaster, residues 1074-1148, from cDNA LD19135; 15N-labelled in the NMR experiments; also called CM2 dimer; minimal dimer construct; source: E. coli, purified (NiNTA, cation exchange; non-labeled protein also size exclusion)
In the case of B2, the “stoichiometry N” value [3] is reported as 2.

B3: centrosomin CM2 aa1090-1148 (monomeric CM2) (domain or fragment, Drosophila melanogaster, UniProt P54623-2 1090-1148, looked up)
chain: ENAELRRKLIRTKRAFEDTYEKLRMANKAKAQVEKDIKNQILKTHNVLRNVRSNMENEL
notes: centrosomin (CNN), Drosophila melanogaster, residues 1090-1148 (start of the predicted coiled coil to the C-terminus), from cDNA LD19135; 15N-labelled (or 13C/15N) in the NMR experiments; also called CM2 monomer; truncated CM2; source: E. coli, purified (NiNTA, cation exchange; non-labeled protein also size exclusion)
B3: binds [4].
